# According to the nanobody polyreactivity screen of Harvey et al. (2022):
# Assay: yeast display, Sf9 membrane polyspecificity reagent, FACS + sequencing; frameworks hold sequencing errors
# Outline: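 Polyreactivity labels are assigned by the sorting gate from which each nanobody was recovered. The gates were low and high (top ~1%), set on anti-HA fluorescence for expression and streptavidin fluorescence for reagent binding. Before sorting, galactose-induced (36–48 hours) yeast display cells were stained for 1 hour at 4 °C with 10% biotinylated, detergent-solubilized Sf9 membrane reagent.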
row,Sequence,polyreactivity (PSR sort gate)
1,QVQLVESGGGLVQAGGSLRISCAASGSIFPYNDMGWYRQAPGKERELVAVITSSGGSTYYADSVKGRFTISRDNAKNTVYLQMNSLKPEDTAVYYCAARGYNYYFGGYDYWGQGTQVTVSS,low polyreactivity
2,QVQLVESGGGLVQAGGSLRLSCAASGRTFSYYAMGWYRQAPGKERELVARITYRGGRTYYADSVKGRFTISRDNAKNTVYLQMNSLKPEDTAVYYCNADAINKRGGLDYWGQGTQVTVSS,high polyreactivity
3,QVQLVESGGGLVQAGGSLRLSCAASGITLTRYAMGWYRQAPGKERELVAAISTGGGSTYYADSVKGRFTISRDNAKNTVYLQMNSLKPEDTAVYYCAARIRFARGYPITRTYDYWGQGTQVTVSS,high polyreactivity
4,QVQLVESGGGLVQAGGSLRLICAASGSTFTRYAMGWYRQAPRKERELVAAISRGGSTNYADSVKGRFTISRDNAKNTVYLQMNSLKPEDTAVYYCAAARYRYYLGFGYDYWGQGTQVTVSS,high polyreactivity
5,QVQLVESGGGLVQAGGSLRLSCAASGLTFEDYAMGWNRQEPGKEREFVAAISTSGGRTYYADSVKGRFTISRDNAKNTVYLQMNSLKPEDTAVYYCAAGGWYGYVYRFYYWGQGTQVTVSS,high polyreactivity
6,QDQLVESGGGLVQAGGSLRLSCAASGSTFAYYAMGWYRQAPGKERELVAAITIDGRTSYADSVKGRFTISRDNAKNTVYLQMISLNQVDTAVYYCARGYFPYGYPWRWGYDRFDYWGQGTQVTVSS,low polyreactivity
7,QGQLVESGGGLVQAGGSLRLSCAASGSTFNSYAMGWYRQAPGKERELVAAISRGGASTYYADSVKGSFTISRDNAKNTVYLQMNSLKPEDTAVYYCATVYYHRFDYWGQGTQVTVSS,high polyreactivity
8,QVQLVESGGGLVQAGGSLRLSCAASGSIFVSYAMGWYRQAPGKERELVAAISSSGTRTYYADSVKGRFTISRDNAKNTVYLQMNSLKPEDTAVYYCAKDSYHTVWGGYWGQGTQVTVSS,high polyreactivity
9,QVQLVESGGGLVQAGGSLPLSCAASGSIFTYNTMGSYRQAPGKERELVATISWSGGRTYYADSVKGRVTISRDNAKNTVYLQMNSLKPEDTAVYYCAAVYYSYYGYFLPYGYWGQGTQVTVSS,high polyreactivity
10,QVHLVESGGGLVQAGGSLRLSCAASGSTIRSYAMGWNRQAPGKERELVARIAYSSGGTYYADSVKGRFTISRDNAKNTVYLQMNSLKPEDTAVYYCAKPSPITSYPRFDYWGQGTQVTVSS,high polyreactivity
11,QVHLLESGGGLVQAGGSLRLSCAAPGSTLFNYDMGWSRQAPGKERELLAAITTSGDSTYYADSVKGRFTISRDNAKNTVYFQMNSLKPEDTAVYYCNADVFKTVFYIDRYYYWGQGTKVTVSS,low polyreactivity
12,QVQLVESGGGLVQAGGSLRLSCAASGSTFGYNDMGRYRQAPGKERELVADSSYSGDSTYSADSVKGRFTISRDNAQNTVYLQMNSLKPEDTAVYYCKADRFADYDDWGQGTQVTVSS,low polyreactivity
13,QVQLVESVGGLVQAGGSLRLSCAASGFIFYSNAMGWYRKAPGKERELVAAISRSGGSTYYADSVKGRFTISRDNAKNTVYLQMNSLKPEDTAVYYCNVYCYDWWGYDYWGQGTQVTVSS,high polyreactivity
14,QFQLVESGGGLVQAGGSLRLSCAASGLIFRRYAMGWYRQAPGKEREFVAAISWSGGSTYYADSVKGRFTISRDNAKNSVYLQINSLKPEDTGVSYFAAYDKSLYGSGYDYWGQGTQVTVSP,high polyreactivity
15,QVQLVESGGGLVQAGGSLRLSCAASGGTFRTYVMGWYRQAPGKERELVAAISVSGGRTYYADSVKGRFTISRDNAKTTVYLQMNSLKPEDTAVYYCAAYWHGFFKYWEMGYWGQGTQVTVSS,high polyreactivity
16,QVQLQESGGGLVQAGGSLRLSCSASGTISDSGLMGWYRQAPGKERELVAGISSGGITNDADSVNRRFTISRDNALFTVYLQMNSLKPEDTALYWGEGTQVTVSS,low polyreactivity
17,QVQLVESGGGLVQAGGSLRLSCAASGRIFRVYTMGWYRPAPGKESELVAAISRGGSTNYADSVKGRFTISRDNAKNTVYLQMNSLKPEDTAVYYCAARYPNLRRRWYYYWGQGTQVTVSS,high polyreactivity
18,QVQLVESGGGLVQAGGSLRLSCAASGRTFFYNGMVWYIQAPGKQRELVAAISGSGSRTYYADSVKGRFTISRDNAKNTVYLQMNSLKPEDTAVYYCAATRVISHYRFDYWGQGTEVTVSS,high polyreactivity
19,QVQLVESGGGLVQAGGSLRLSCAASGSTFLDNAMGWYRQAPGKERELVASITSSGGNTYYADSVKGRFTISRDNAKNTVYLQLNSLTPEDTAVYYCAADAASYWRYNSANYDYDYWGQGTQVTVSS,low polyreactivity
20,QVQLVESGGGLVQAGGSLRLSCAASGSIFVWYDMGWYRQAPGKERELVATFSLSGVSTYYADSVKGRFTISRDNAKNTVYLQMNSLKPEDSAVYYCAADFVEQGEDDYWGQGTQVTVSS,low polyreactivity
21,QVQLVESGGGLVQAGGSLRLSCAASGSIFPWYAMGWYRQEPGKERELVAAISKSGAGTYYADSVKGRFTISRDTAKNTVYLQMNSLKPEDTAVYYCNARWRSNRAARYDFWGQGTQVTVSS,high polyreactivity
22,QVQLVESGGGLVQAGGSLRLSCAASGRIFAGYAMGWYRQAPGKERELVAAISNARRTNYADSVKGRFTISRDNAKNNVYLHMNSLKPEDTAVYYCAASRYGRKFSLYDYYYWGQGTQVTVSS,high polyreactivity

row,Sequence,polyreactivity (PSR sort gate)
1,QVQLVESGGGLVQAGGSLRFSCAASGSIFWSNAMGWYRQAPGKERELVAAITTSDGSTYYADSVKGRFTISRDNAKNTVYLQMNSLKPEDTAVYYCAADTYYVSYGYYYWGQGTQVTVSS,low polyreactivity
2,QVQLVESGGGLVQAGGSLRLSCAASGSIFPGYAMGWYRQAPGKERELVATITWSGGSTYYADSVKWRFTISRDNEKNTVYLQMNCLKPEDTAVYYCNADSNWYYQWNYYGLYDYWGQGTQVTVSS,low polyreactivity
3,QVQLVESGGGLVQAGGSLRLSCAASRITFYSYAMGWYRQAPGKERELVAAITFRGTSTYYADSVKGRFTISRDNAKNTVYLQMNSQKPEDTAVYYCAAYSGQARGYDYWGQGTQVTVSS,high polyreactivity
4,QVQLVESGGGLVQAGGSLRLSCAASGRTFSYYVMGWYRQAAGKERELVAAISRTTRTYYADSVKGRFSISRDNAKNTVYLHMNSLKPEDTAVYYCAADFPKGHYHYWGHGTQVTVSS,high polyreactivity
5,QVQLVESGGGLVQAGGSLRLSSAASGFTFSGYAMGWYRQAPVKERELVAAISSSGASTYYADSVKGRFTISRDNAKNTVYLQIHSLKPEDTAVYYCAAGTRLSDGYYWGQGTQVTVSS,high polyreactivity
6,QFQLEESGGGLVQAGGSLRLSCAASGITFVDYAMGWYRQAPGKERELVAAITTGGSTNYADSVKGRFTISRDNAKNTVYLQMNSLKPEDTAVYYCNKRPVILYDYWGQGTQVTVSS,low polyreactivity
7,QVQLVESGGGLVQAGGSLRLSCAASGGIFTLYVMGWYRQEPGKERELVAAISRTGGSTYYADSVKGRLTISRDNAKNTVYLQMNSLKPEDTAVYYCDAERGVDDSARYGDYDYWGQGTQVTVSS,low polyreactivity
8,QVQLVESGGCLVQAGGSLRLSCAASGRTYVVNAMGWYRHAPGKESELVAAITTGGSTYYADSVKGRFTISRENAKYTVYLQMNSLKPEDTAVYYCAADIYLYYIFDYWVDYDYWGQCTQVTVSS,high polyreactivity
9,QVQLVESGGGLVQAGGSLRLSCAASGRIFYKYAMGWYRQAPGKERELVAAISWSGGRTYYADSVKGRFTISRDNAKNTVYLQMNSLKPEDTAVYYCAAVRGGASGGYDYWGQGTQVTVSS,high polyreactivity
10,QVQLVESGGGLVQAGGSLRLSCAASGSIFYYYAMGWYRLAAGKERELVAAINSGGSTYADSVKGRFSISRDNAKNTVYLQMNSLIPEDSAVYYSATDIHSVDNNRDKHDYDYWGQGTQVTVSS,low polyreactivity
11,QVQLVESGGGLVQAGGSLRLSCAASGIIFRGYPMGWYRQAPGKERELVARISITGGRTYYADSVKGRFTSSRDNAKNTVELQMNSLKPEDTAVYYCAAGKYVSTVRYDYWGQGTQVTVAS,high polyreactivity
12,QVQLVESGGVLVQAGGSLRLSCAASGRIFSSNAMGWYRHAPGKESEFVADISWRTGSTYYADSVKGRFTISRDNAKNTVYLQMNSLKPEDTAVYYCKKRTGSYGYPYYYWGQGTQVTVSS,high polyreactivity
13,QVQLVESGGGLVQAGGSLRLSCAASGRTFYGYAMGWYRQAPGKERELVAGISGRGTRTYYADSVKGRFTISRDNAKNTVYLQMNSLKPEDTAVYYCNAVSIGYYSQSLGLDYWGQGTQVTVSS,high polyreactivity
14,QVQLVESGGGLVQAGGSLRLSCAASGRTFYSYVMGWYRQAPGKEREVVAAIPRSGGSTNYADSVKGRFTISRDNAKNTVYFQMHSRKPEDTAVYYCASRAGRTLRTHYDYWGQGTQGTVSS,high polyreactivity
15,QVHLVESGGGLVQAGGSLRLSCAASGSTFPWYARGWYRKAPGKERELVAAISGSSSTTYYADSVKGRFTISRDNAMNTVYLQMNSLKPEDTAVYYCNAVTTSGSGYGYWGQGTQVTVSS,low polyreactivity
16,QVQLVESGGGLVQAGGSLRLSSASSGRIFAIYVMGWYRQAHGKERELVAAITSGGNTNYADSVKGRFTISRDNAKNTVYLQINSLKPEDSAVYYCAAFYYRRSFTLSYSSFDYWGQGTQVTVSS,low polyreactivity
17,QVQLVESVGGLVQAGGSLRLSCAASGSTFRYNAMGWYRQAPGKERELVATISSDGITYYADSVNGRFTISRDNAKNTVYLQMNRLKPEDTAVYYCAASYAGGFDYWGQGTQVTVSS,high polyreactivity
18,QVQLVESGGGLVQAGGSLRLSSAASGLTIYYYAMGWYRQAPGKERELVAAITWRGGSTYYADSVKGRFTISRDNAKYPDYLQMNCLIPAVTAVYYSAADPGPYGYYYWGQGTQVTVSS,low polyreactivity
19,QVQLVESGGGLVQAGGSLRLSCAASGRTLRKYAMGWYRQAPGKERELVAAISSSGGNTYYADSVKGRFTISRDNAKNTVYLQMNSLKPEDTAVYYCAAGFYYPTARVGYYYWGQGTQVTVSS,high polyreactivity
20,QVQLVESGGGLVQAAGSLRLSCAASGFTFYSNVMGWYRQAPGKERELVAAITGRGSRTYYEDSVNGRFTISRDNAKNTVYLQMNSLKTEDTPVYYCAARYTNYGGYYWGQGTQVTVSS,high polyreactivity
21,QVQLVESGGGLVQAGGSLRLSCAASGFIFPYYAMGWYRQAPGKERELVAAISSSGGRTYYADSVKGRFTISRDNAKNTVYLQMNSLKPEDTAVYYCNARPNPYLGYGYWGQGTQVTVSS,high polyreactivity
